Source: patent US20200079851A1 (University of Texas, published 2020)

T1: D2-SR-M2(139-235)
T1 chain: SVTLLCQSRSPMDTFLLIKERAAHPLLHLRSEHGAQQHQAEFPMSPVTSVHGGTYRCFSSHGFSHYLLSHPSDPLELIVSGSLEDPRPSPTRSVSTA


Tests used:
D2-SR-M1(139-259) = assay: ELISA, mAb titrated on D2-SR-M1(139-259)
LILRB1 [1] = biological target: T2, LILRB1 (human, UniProt Q8NHL6 24-458, limits assumed); assay: cross-reactivity test on the LILRBs (ELISA per paragraph 433)
T2 construct: also called leukocyte immunoglobulin-like receptor subfamily B member 1

LILRB2 = biological target: T3, LILRB2 (human, UniProt Q8N423 22-458, limits assumed); assay: as above
T3 construct: also called leukocyte immunoglobulin-like receptor subfamily B member 2

LILRB3 = biological target: T4, LILRB3 (human, UniProt O75022 24-443, limits assumed); assay: as above
T4 construct: also called leukocyte immunoglobulin-like receptor subfamily B member 3

LILRB5 [2] = biological target: T5, LILRB5 (human, UniProt O75023 24-458, limits assumed); assay: as above
human LILRB4 [3] = biological target: T6, human LILRB4 (human, UniProt Q8NHJ6 22-259, limits assumed); assay: ELISA, OD450 against antibody concentration
T6 construct: also called leukocyte immunoglobulin-like receptor subfamily B member 4

D2-SR-Fc = biological target: T7, D2-SR-Fc; assay: ELISA, mAb titrated on D2-SR-wt(119-259)
T7 construct: also called D2-SR-WT

SR = biological target: T8, SR; assay: matrix of binding to LILRB4 domain-Fc fusions (FIG. 47); ELISA per paragraph 433
T8 construct: also called LILRB4 SR-hIgG1-Fc; stalk region of LILRB4 as Fc fusion

D2 = biological target: T9, D2; assay: as above
T9 construct: also called LILRB4 D2-hIgG1-Fc; second Ig-like domain of LILRB4 as Fc fusion

[4] = biological target: T10, LILRB4 D1 (first Ig-like domain) Fc fusion protein (human, UniProt Q8NHJ6 27-118); assay: as above
T10 construct: also called D1 of LILRB4; not shown: Fc part

D2-SR-M15(139-219) [5] = assay: ELISA, mAb 8 titrated
D2-SR-M2(139-235) [6] = biological target: T1, D2-SR-M2(139-235); assay: ELISA, mAb 8 titrated
human LILRB4 [7] = biological target: T6, human LILRB4; assay: ELISA
D2-SR-M15(139-219) [8] = assay: ELISA, mAb 216-2 titrated
D2-SR-M2(139-235) [9] = biological target: T1, D2-SR-M2(139-235); assay: ELISA, mAb 216-2 titrated
human LILRB4 [10] = biological target: T6, human LILRB4; assay: ELISA, OD450 against antibody concentration; remark: listed apart in the source
LILRB1 [11] = biological target: T2, LILRB1; assay: cross-reactivity ELISA (FIG. 46)
LILRB5 [12] = biological target: T5, LILRB5; assay: cross-reactivity ELISA (FIG. 46)

T2 sequence (Q8NHL6 24-458 limits assumed): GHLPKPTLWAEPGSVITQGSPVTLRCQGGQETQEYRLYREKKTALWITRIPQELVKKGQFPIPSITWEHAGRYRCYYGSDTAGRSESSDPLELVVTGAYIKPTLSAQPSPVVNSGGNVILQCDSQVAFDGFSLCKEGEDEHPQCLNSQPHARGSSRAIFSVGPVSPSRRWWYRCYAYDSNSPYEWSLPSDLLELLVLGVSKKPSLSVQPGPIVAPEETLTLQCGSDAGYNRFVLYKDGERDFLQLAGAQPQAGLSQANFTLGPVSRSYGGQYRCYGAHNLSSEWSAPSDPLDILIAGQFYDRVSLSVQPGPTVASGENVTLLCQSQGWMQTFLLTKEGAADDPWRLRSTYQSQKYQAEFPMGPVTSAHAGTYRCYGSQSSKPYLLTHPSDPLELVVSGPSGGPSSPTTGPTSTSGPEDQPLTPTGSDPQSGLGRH
T5 sequence (O75023 24-458 limits assumed): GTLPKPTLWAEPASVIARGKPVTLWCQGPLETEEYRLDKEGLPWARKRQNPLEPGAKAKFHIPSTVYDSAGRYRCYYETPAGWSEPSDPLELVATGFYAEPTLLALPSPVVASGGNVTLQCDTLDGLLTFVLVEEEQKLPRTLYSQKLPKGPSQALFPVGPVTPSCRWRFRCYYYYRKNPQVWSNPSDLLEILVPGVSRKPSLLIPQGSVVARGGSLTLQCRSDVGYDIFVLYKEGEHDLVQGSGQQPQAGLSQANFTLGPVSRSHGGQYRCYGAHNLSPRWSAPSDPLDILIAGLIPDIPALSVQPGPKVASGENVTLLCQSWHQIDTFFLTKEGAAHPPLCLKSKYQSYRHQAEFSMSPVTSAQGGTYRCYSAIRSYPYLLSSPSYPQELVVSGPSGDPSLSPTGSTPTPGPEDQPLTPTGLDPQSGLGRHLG
T10 sequence (Q8NHJ6 27-118): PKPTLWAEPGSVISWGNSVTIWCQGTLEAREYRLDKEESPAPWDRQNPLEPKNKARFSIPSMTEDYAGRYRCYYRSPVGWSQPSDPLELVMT
T9 sequence (fusion chain, as listed by the source): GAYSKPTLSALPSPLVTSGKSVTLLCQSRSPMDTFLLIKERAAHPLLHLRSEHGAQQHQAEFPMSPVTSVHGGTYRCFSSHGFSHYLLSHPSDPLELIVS
T8 sequence (fusion chain, as listed by the source): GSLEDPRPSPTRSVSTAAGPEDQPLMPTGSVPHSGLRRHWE
T3 sequence (Q8N423 22-458 limits assumed): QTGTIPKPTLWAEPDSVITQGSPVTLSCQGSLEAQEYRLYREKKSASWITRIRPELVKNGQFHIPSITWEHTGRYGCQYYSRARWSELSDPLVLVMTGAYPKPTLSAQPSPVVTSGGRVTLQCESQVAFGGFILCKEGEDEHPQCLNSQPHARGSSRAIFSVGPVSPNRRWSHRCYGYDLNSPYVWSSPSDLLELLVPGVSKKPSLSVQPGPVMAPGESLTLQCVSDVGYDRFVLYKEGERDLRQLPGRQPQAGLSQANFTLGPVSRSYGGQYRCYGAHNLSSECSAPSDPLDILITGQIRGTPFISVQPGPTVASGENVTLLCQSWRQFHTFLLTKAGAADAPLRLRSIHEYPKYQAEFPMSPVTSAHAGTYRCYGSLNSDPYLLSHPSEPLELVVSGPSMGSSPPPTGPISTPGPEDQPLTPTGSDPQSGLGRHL
T7 sequence (Q8NHJ6 119-259): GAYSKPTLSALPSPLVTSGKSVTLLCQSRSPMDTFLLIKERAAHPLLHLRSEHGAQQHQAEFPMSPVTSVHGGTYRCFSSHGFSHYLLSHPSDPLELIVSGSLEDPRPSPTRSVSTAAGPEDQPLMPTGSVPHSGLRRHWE
T4 sequence (O75022 24-443 limits assumed): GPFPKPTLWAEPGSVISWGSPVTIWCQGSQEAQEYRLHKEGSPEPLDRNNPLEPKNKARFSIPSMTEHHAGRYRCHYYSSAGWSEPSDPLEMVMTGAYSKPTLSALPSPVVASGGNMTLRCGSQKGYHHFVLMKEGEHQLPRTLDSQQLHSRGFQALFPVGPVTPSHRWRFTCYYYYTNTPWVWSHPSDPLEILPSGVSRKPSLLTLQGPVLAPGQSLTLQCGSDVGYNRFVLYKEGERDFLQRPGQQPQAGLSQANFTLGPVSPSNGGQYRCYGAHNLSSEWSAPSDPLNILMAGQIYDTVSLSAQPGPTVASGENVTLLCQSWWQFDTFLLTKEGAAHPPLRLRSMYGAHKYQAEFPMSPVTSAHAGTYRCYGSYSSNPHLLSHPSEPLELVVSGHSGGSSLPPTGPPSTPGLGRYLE

Binder | EC50 (read off the curve) (D2-SR-M1(139-259)) [µg/mL] | binding result (LILRB1 [1]) | binding result (LILRB2) | binding result (LILRB3) | binding result (LILRB5 [2]) | EC50 (human LILRB4 [3]) [µg/mL] | EC50 (read off the curve) (D2-SR-Fc) [µg/mL] | binding result (SR) | binding result (D2) | binding result [4] | binding result (D2-SR-M15(139-219) [5]) | binding result (D2-SR-M2(139-235) [6]) | EC50 (human LILRB4 [7]) [nM] | binding result (D2-SR-M15(139-219) [8]) | binding result (D2-SR-M2(139-235) [9]) | EC50 (human LILRB4 [10]) [µg/mL] | binding result (LILRB1 [11]) | binding result (LILRB5 [12])
anti-LILRB4 rabbit monoclonal antibody #8 (antibody, V domains shown, also called mAb 8) VH: QSVKESGGGLVTPGGTLTLTCTASGFSLISYDMYWVRQAPGKGLEYIGIIYSDGYTFYATGAKGRITISRTSTTVDLKITSPTTEDTATYFCATNAFALWGQGTLVTISS VL: ELDLTQTPSSVSAAVGGTVTISCQSSQNVYNNNWLVWLQQKPGQPPKRLIYTASSLASGVPSRFAGSGSATQFTLTISDLECGDAATYYCAGGYSGPIYTFGGGTEVEIK | ~0.03 | no binding | no binding | no binding | no binding | 0.00943 | ~0.03 | binds | no binding | no binding | no binding (tested: 1000 ng/ml) | no binding (tested: 1000 ng/ml) | 0.0629 | – | – | – | – | –
anti-LILRB4 rabbit monoclonal antibody #216-2 (antibody, V domains shown) VH: EQSLKESGGRLVTPGTPLTLTCTVSGIDLSSYAMTWVRQVPGKGLEYIGFINIVGIAGYATWAKGRFTISKTSTTVDLKVTSPTTEDTATYFCARNWIRLDLWGQGTLVTVSS VL: ELVMTQTPASVSAAVGGTVTISCQSSESLYKKNYLSWFQQKPGQPPKLLIYEASKLASGVPSRFSGSGSGTQFTLTISDVQCDDAASYYCLGDYTNGRDTTFGGGTEVEIK | – | – | – | – | – | – | – | binds | no binding | no binding | – | – | 0.0647 | no binding (tested: 1000 ng/ml) | no binding (tested: 1000 ng/ml) | 0.0097 | binds | binds
